Laboratory results published in patent US8796209B2, “Compositions and methods related to anti-FGF agents” (The Regents of the University of California, priority 2005, dated 2014).
Changes are numbered by the printed parent chain.

T1: FGFR1 D2D3 fragment (Homo sapiens, UniProt P11362)
T1 construct: A DNA fragment encoding amino acid residues 140 to 365 of the immunoglobulin-like domains D2 and D3 of FGFR; made in house
T1 sequence (P11362 140-365): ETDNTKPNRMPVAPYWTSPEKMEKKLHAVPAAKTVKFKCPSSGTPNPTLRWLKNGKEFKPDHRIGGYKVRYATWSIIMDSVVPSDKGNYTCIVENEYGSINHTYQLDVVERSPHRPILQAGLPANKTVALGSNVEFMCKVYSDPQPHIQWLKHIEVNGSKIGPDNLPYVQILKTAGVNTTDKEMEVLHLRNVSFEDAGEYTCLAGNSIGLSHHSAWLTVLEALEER

B1: 4xE: FGF-1 mutant, Lys127/Lys128/Lys133/Arg134 simultaneously to Glu (protein)
chain: FNLPPGNYKKPKLLYCSNGGHFLRILPDGTVDGTRDRSDQHIQLQLSAESVGEVYIKSTETGQYLAMDTDGLLYGSQTPNEECLFLERLEENHYNTYISKKHAEKNWFVGLEENGSCEEGPRTHYGQKAILFLPLPVSSD
B2: 3xA: FGF-1 mutant, three residues in the FGFR binding site (Glu102/Tyr109/Asn110) to Ala (protein)
chain: B1 chain with E87A, Y94A, N95A, E112K, E113K, E118K, E119R

Experiments:
[1] = target: T1, FGFR1 D2D3 fragment; experiment: Competition with biotinylated FGF-1 for immobilized FGF receptor D2D3 fragments; assay type: binding; settings: for effect of the mutation on binding of the FGFR1 D2D3 fragment: competition with 1 μg/ml biotinylated FGF-1; for FGFR binding: phenotype of FGF-1 mutants, Table 2
Experimental: One μg/mi biotinylated FGF-1 and increasing concentrations of unlabelled FGF-1 or FGF-1 mutants were incubated for 1 h at RT with immobilized FGF receptor D2D3 fragments. Then the plate was washed and the bound biotinylated FGF were measured using an avidin conjugated HRP. Unlabeled wild-type (diamond) FGF-1, the R50E (square), 4xE (circle), and 3xA (triangle) FGF-1 mutants were used.
A DNA fragment encoding amino acid residues 140 to 365 of the immunoglobulin-like domains D2 and D3 of FGFR was amplified by PCR with the full length human FGFR1 cDNA in the pcDNA3 (gift from Ann Hanneken, the Scripps Research Institute, La Jolla, Calif.) as a template. A Bam HI restriction site was introduced at the 5′ end, Xho I site at the 3′ end of the cDNA fragment with the following primers: 5′-[…]-3′ (SEQ ID NO:5), 5′-[…]-3′ (SEQ ID NO:6). The resulting cDNA fragment was subcloned into the Bam HI/Xho I sites of the vector pET21a, and transformed into BL21 (DE3).
The protein was expressed as an insoluble protein, refolded as described (Plotnikov et al., 2000). The refolded protein was purified by affinity chromatography using the FGF-1 coupled to CNBr-activated Sepharose (Amersham Pharmacia Biotech) as an affinity matrix. FGF-1-Sepharose was incubated with crude refolded proteins 16 h at 4° C. After binding, the affinity matrix was washed with buffer containing 100 mM NaCl and 50 mM Tris (pH 7.4); and eluted with 1.2M NaCl, and 50 mM Tris (pH 7.4).

[2] = Heparin binding assay (heparin sepharose column, NaCl step elution); settings: for Heparin binding: phenotype of FGF-1 mutants, Table 2
Experimental: (§1) Partially purified wt and mutant FGF1 in 100 mM NaCl and 50 mM Tris (pH 7.4) were applied to a heparin sepharose column (1 ml bed volume). The column was washed with the same buffer and bound proteins were eluted with a stepwise increase in NaCl concentration from 0.1 to 1.2 M. Fractions were analyzed by SDS-polyacrylamide gradient gel electrophoresis. Proteins were visualized by Coomassie Brilliant Blue staining.
as §1, with “Wild type” for “Partially purified wt”, “FGF-1” for “FGF1”, “Tris/HCI” for “Tris”, “to” for “to a”, “with” for “with the”, “buffer,” for “buffer”

[3] = tested on: Balb 3T3 cells; experiment: Scratch wound healing assay; assay type: cell-based, mouse; settings: for Wound healing: phenotype of FGF-1 mutants, Table 2; for effect on migration of Balb3T3 cells in scratch wound healing assays: with 5 μg/ml heparin, 24 h
Experimental: Confluent serum-starved Balb 3T3 cells were scratched. After washing with serum-free medium, cells were incubated in DMEM containing 5 μg/ml heparin and 5 ng/ml wild-type or mutant FGF-1s for 24 h at 37° C. Controls contain medium alone (none) or medium containing 10% fetal calf serum (FCS).
Balb 3T3 cells were plated into 6-well cell culture plate. Cells were allowed to grow in DMEM containing 10% fetal calf serum for overnight, and then cells were washed with serum-free medium and starved for 24 h. A scratch was made across the cell layer using a pipette tip. After washing with serum-free medium twice, DMEM containing 10 ng/ml wild type or mutant FGF-1 together with 5 μg/ml heparin were added to cells. Plates were photographed at 0, 6, 12, and 24 h.

[4] = tested on: ERK1/2; experiment: MAP kinase (ERK1/2) activation, western blot; assay type: cell-based, mouse; settings: for ability to induce ERK1/2 activation: 5 ng/ml, 10 min, with or without 5 μg/ml heparin; for ERK1/2 activation: phenotype of FGF-1 mutants, Table 2
Experimental: Serum starved Balb3T3 cells were stimulated with wild-type and mutant FGF-1s (5 ng/ml) in the presence or absence of 5 μg/ml heparin for 10 min at 37° C. Cell lysates were analyzed by western blotting with anti-phospho ERK1/2 (anti phospho-ERK). Total amount of ERK1/2 in each lane was determined by blotting with anti-ERK1/2. Controls contain medium alone (none) or medium containing 10% fetal calf serum (FCS).
Balb3T3 cells were grown to confluence and serum starved in DMEM supplemented with 0.4% fetal calf serum for 24 h, and stimulated with wild type and mutant FGF-1 (5 ng/ml) in the presence or absence of 5 μg/ml heparin for 10 min at 37° C. Cells were washed twice with ice-cold PBS and lysed with the lysis buffer (20 mM Tris-HCI pH 8.0, 120 mM NaCl, 5 mM EDTA, 0.5% Triton-X100, 1 mM PMSF, 1 mM DTT, 10 mM NaF, 1 mM Na3VO4, 10 μg/ml aprotinin). Cell lysates were separated on 4-12% NuPAGE Bis-Tris Gel (invitrogen). Proteins were then transferred to PVDF membranes (Milli-pore), probed with antibodies, and bound antibodies were detected by HRP-conjugated anti-mouse IgG and chemiluminescence HRP substrate (Pierce). The antibodies used were anti-phospho-ERK1/2, anti-ERK1/2 (Cell Signaling Technology).

Molecule | effect of the mutation on binding of the FGFR1 D2D3 fragment [1] | FGFR binding [1] | effect of the mutation on heparin binding to FGF-1 [2] | Heparin binding [2] | Wound healing [3] | effect on migration of Balb3T3 cells in scratch wound healing assays [3] | ability to induce ERK1/2 activation [4] | ERK1/2 activation [4]
R50E: FGF-1 mutant with the Arg-50 to Glu (R50E) mutation | did not block | Normal | did not | Normal | Low | effectively blocked | much less ability | Low
Wild type: human FGF-1 (acidic FGF), wild type, expressed in E. coli |  | Normal |  | Normal | Normal |  |  | Normal
B1 | did not block | Normal | completely blocked | Low | Low | effectively blocked | did not induce ERK1/2 activation at all | Low
B2 | effectively blocked | Low | did not | Normal | Low | effectively blocked | did not show ERK1/2 activation | Low
